In test [1] the target is CLDN18.2 of healthy mouse stomach (mouse) (UniProt P56857). Nature of the test: flow cytometry, live cells of healthy mouse stomach, mouse 2, antibody 4 µg/ml.
Test [2] shares this target. Description: flow cytometry, live cells of healthy mouse stomach, average of two mice. (In general: A flow cytometer gives signals particle by particle.)
Test [3] has the same target. Nature of the test: flow cytometry, live cells of healthy mouse stomach, mouse 1, antibody 4 µg/ml.

B1: cCl1-1 (antibody, V domains shown)
VH: QIQLVQSGPELKKPGESVKISCKASGYTFTDYAMHWVKQAPGKGLKWMGWINTYTGKPTYADDFKGRFVFSLEASASTANLQISNLKNEDTATYFCARAVFYGYTMDAWGQGTSVTVSS
VL: DIQMTQSPASLSASLGETISIACRASEDIYSNLAWYQQKSGKSPQLLIFSVKRLQDGVPSRFSGSGSGTQYSLKISGMQPEDEGDYFCLQGSNFPLTFGSGTKLEIK
B1: the % of positive healthy stomach cells is 0.3% in test [1], 0.35% in test [2] and 0.4% in test [3].

The values above are taken from patent US20240100180A1.
